From publication PMC4930772, “Crystal structure of a PP2A B56-BubR1 complex and its implications for PP2A substrate recruitment and localization” (Protein & Cell, 2016)

Target: human PP2A B56γ1(30–380) (human, UniProt Q13362-2 30-380)
Assay: ITC; B56γ1 in the cell at 0.03 mmol/L, BubR1 protein or peptide at 0.7 mmol/L injected (20 x 1.5 µL); room temperature; 20 mmol/L Tris-HCl pH 8.0, 200 mmol/L NaCl; one-site model
Settings: both partners purified

Kd	dH	stoichiometry N	Binder
2.27 ± 0.37 µM	-28.4 ± 0.83 kcal/mol	1.02 ± 0.02	human BubR1(647–720)-3D (S670D/S676D/T680D) (domain or fragment, also called BubR1-3D; source: E. coli BL21 (DE3), purified (Glutathione Sepharose 4B, TEV cleavage, Hitrap Q HP)) KTSEDQQTACGTIYSQTLSIKKLDPIIEDDREADHSSGFSGSSASVASTSSIKCLQIPEKLELTNETSENPTQS
10.6 ± 1.72 µM	-9.74 ± 0.64 kcal/mol	1.02 ± 0.05	human BubR1(647–720; E678A/T680A/H681A) (domain or fragment, also called BubR1-AAAA; source: E. coli BL21 (DE3), purified the same way as wild type) KTSEDQQTACGTIYSQTLSIKKLSPIIEDSRAAAASSGFSGSSASVASTSSIKCLQIPEKLELTNETSENPTQS
